Numbering of substitutions follows the chain as printed. In names and notes the source's numbering stands. Blank lines part the entries; values can stand above or below the binder they belong to.
Target: IL-12 receptor β1 (IL-12Rβ1) (human, UniProt P42701 24-662)
Assay: cell-based or functional assay

EC50 of STAT4 phosphorylation in human NK cells (flow cytometry, FIG. 3A): 0.0408 µg/mL | EC50 of STAT4 phosphorylation in human NK cells (flow cytometry, FIG. 3B): 0.0574 µg/mL
B1: wild-type (WT) IL-12 (ligand)
chain 1: IWELKKDVYVVELDWYPDAPGEMVVLTCDTPEEDGITWTLDQSSEVLGSGKTLTIQVKEFGDAGQYTCHKGGEVLSHSLLLLHKKEDGIWSTDILKDQKEPKNKTFLRCEAKNYSGRFTCWWLTTISTDLTFSVKSSRGSSDPQGVTCGAATLSAERVRGDNKEYEYSVECQEDSACPAAEESLPIEVMVDAVHKLKYENYTSSFFIRDIIKPDPPKNLQLKPLKNSRQVEVSWEYPDTWSTPHSYFSLTFCVQVQGKSKREKKDRVFTDKTSATVICRKNASISVRAQDRYYSSSWSEWASVPCS
chain 2: RNLPVATPDPGMFPCLHHSQNLLRAVSNMLQKARQTLEFYPCTSEEIDHEDITKDKTSTVEACLPLELTKNESCLNSRETSFITNGSCLASRKTSFMMALCLSSIYEDLKMYQVEFKTMNAKLLMDPKRQIFLDQNMLAVIDELMQALNFNSETVPQKSSLEEPDFYKTKIKLCILLHAFRIRAVTIDRVMSYLNAS

EC50 of STAT4 phosphorylation in human NK cells (flow cytometry, FIG. 3A): 0.839 µg/mL
B2: IL-12 H216A/K217A/K219A triple mutant (HKK) (ligand)
chain 1: B1 chain 1 with H194A, K195A, K197A
chain 2: B1 chain 2

EC50 of STAT4 phosphorylation in human NK cells (flow cytometry, FIG. 3B): 0.29 µg/mL
B3: H216A/K219A IL-12 (IL-12p40 HK219 with WT IL-12p35) (ligand)
chain 1: B1 chain 1 with H194A, K197A
chain 2: B1 chain 2

— patent US20240342246A1 (YALE UNIVERSITY, published 2024)
